Target: T1, GAL4-DB (amino acids 1-147) expressed alone (yeast, UniProt P04386 1-147)
T1 construct: range 1-147; Negative control, not fused to another polypeptide; also called pPC97
Test: yeast reporter SPAL5:URA3, growth on Sc-ura and 5-FOA
Source text: In this example, we employed the SPAL5:URA3 allele, which carries 5 GBSs.

T1 sequence (P04386 1-147 limits assumed): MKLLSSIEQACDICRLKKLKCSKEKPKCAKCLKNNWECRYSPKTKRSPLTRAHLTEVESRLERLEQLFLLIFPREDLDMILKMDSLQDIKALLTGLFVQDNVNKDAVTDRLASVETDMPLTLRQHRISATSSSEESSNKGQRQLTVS

B1: GAL4-AD (amino acids 768-881) expressed alone (other, yeast, UniProt P04386 768-881, looked up)
chain: ANFNQSGNIADSSLSFTFTNSSNGPNLITTQTNSQALSQPIASSNVHDNFMNNEITASKIDDGNNSKPLSPGWTDQTAYNAFGITTGMFNTTTMDDVYNYLFDDEDTPPNPKKE
notes: range 768-881; Negative control, not fused to another polypeptide; also called AD empty (pPC86); pPC86
binding result: no binding
